According to patent publication US20180207291A1:
Like-named read-outs stand apart in the source and are kept apart here.

Tests used:
[1] = biological target: Human Enolase 241 wt peptide as offered to human PBMCs (human)
[2] = biological target: Human Enolase 241cit peptide as offered to human PBMCs (human)
[3] = biological target: Human Enolase 241cit peptide as offered to human PBMCs (human); remark: listed apart in the source
[4] = biological target: Mouse Enolase 241-260 citrullinated peptide presented by HLA-DR4 (mouse; human)

“PBMCs of healthy donor 1 (cells without a defined receptor)” showed a Thymidine proliferation assay, proliferation index (proliferation index) [1] of 1.2 and a Thymidine proliferation assay, proliferation index (proliferation index) [2] of 28.6.
Work on “PBMCs of healthy donor 2 (cells without a defined receptor)” yielded a Thymidine proliferation assay, proliferation index (proliferation index) [2] of 2.7.
In the case of “PBMCs of healthy donor 4 (cells without a defined receptor)”, the Thymidine proliferation assay, proliferation index (proliferation index) [3] is reported as 28.
“Splenocytes of HLA-DR4 transgenic mice immunised with a DNA construct encoding mouse enolase (cells without a defined receptor)” was tested, and the IFNγ Elispot (/million splenocytes) [4] was 180.
